Molecular target: Human calmodulin (human, UniProt P0DP23 1-149)
Assay: ITC

Kd: ~214 µM
B1: Human NaV1.9 C-tail (residues 1618 to 1766) (domain or fragment)
chain: LGEDDFDIFYEVWEKFDPEATQFIKYSALSDFADALPEPLRVAKPNKYQFLVMDLPMVSEDRLHCMDILFAFTARVLGGSDGLDSMKAMMEEKFMEANPLKKLYEPIVTTTKRKEEERGAAIIQKAFRKYMMKVTKGDQGDQNDLENGP

Reference: PMC12118636 (Science Advances, 2025)
